T1: TLT-1 18-188 relipidated in 20:80 PS:PC vesicles (human, UniProt Q86YW5 18-188)
T1 sequence: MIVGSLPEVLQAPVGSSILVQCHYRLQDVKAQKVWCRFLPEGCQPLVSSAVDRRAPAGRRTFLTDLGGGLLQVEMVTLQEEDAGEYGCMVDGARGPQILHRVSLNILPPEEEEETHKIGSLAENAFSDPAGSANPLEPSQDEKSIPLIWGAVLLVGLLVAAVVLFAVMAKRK

T2: TLT-1 receptor on the surface of activated human platelets (human, UniProt Q86YW5 16-311)
T2 sequence: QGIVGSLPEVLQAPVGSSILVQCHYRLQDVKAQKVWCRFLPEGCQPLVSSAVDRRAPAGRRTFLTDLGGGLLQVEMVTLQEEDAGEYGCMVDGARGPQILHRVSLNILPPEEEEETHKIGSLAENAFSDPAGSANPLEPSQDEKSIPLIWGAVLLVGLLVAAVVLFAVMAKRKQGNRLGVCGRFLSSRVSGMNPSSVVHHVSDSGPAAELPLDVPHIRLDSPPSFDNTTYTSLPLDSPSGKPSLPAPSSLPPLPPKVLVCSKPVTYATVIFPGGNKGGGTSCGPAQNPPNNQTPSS

B1: Fab 0052-LC-L4a-TF;VH-CH1-HPC4 (other)
light chain-linker-TF: DIQMTQTTSSLSASLGDRVTISCRASQDISNYLNWYQQKPDGTVKLLIFYTSRLHSGVPSRFSGSGSGTDYSLTISNLEPEDIATYYCQQDTKLPYTFGGGTKLEMKRTVAAPSVFIFPPSDEQLKSGTASVVCLLNNFYPREAKVQWKVDNALQSGNSQESVTEQDSKDSTYSLSSTLTLSKADYEKHKVYACEVTHQGLSSPVTKSFNRGECGSGGGGSGGGGSGGGGSSGTTNTVAAYNLTWKSTNFKTILEWEPKPVNQVYTVQISTKSGDWKSKCFYTTDTECDLTDEIVKDVKQTYLARVFSYPAGNVESTGSAGEPLYENSPEFTPYLETNLGQPTIQSFEQVGTKVNVTVEDERTLVRRNNTFLSLRDVFGKDLIYTLYYWKSSSSGKKTAKTNTNEFLIDVDKGENYCFSVQAVIPSRTVNRKSTDSPVECMGQEKGEFRE
VH-CH1-HPC4: QVQLQQSGAEPMKPGASVKISCKATGYTFSSHWIEWIKQRPGHGLEWIGEILPGSGNTNYNEKFKGKATFTADTSSNTAYMQLSSLTSEDSAVYCCARGYYGLNYDWYFDVWGAGTTVTVSSASTKGPSVFPLAPCSRSTSESTAALGCLVKDYFPEPVTVSWNSGALTSGVHTFPAVLQSSGLYSLSSVVTVPSSSLGTKTYTCNVDHKPSNTKVDKRVESKEDQVDPRLIDGK
B2: Fab 0051-VH-CH1-L4a-TF;LC-HPC4 (other)
VH-CH1-linker-TF: QVQLEQSGAELVRPGVSVKISCKGSGYTFTDYSMHWVKQSHAKSLEWIGVISTYYGDVRYNQKFKGKATMTVDKSSSTAYMALARLTSEDSAIYYCARAPMITTGAWFAYWGQGTLVTVSAASTKGPSVFPLAPCSRSTSESTAALGCLVKDYFPEPVTVSWNSGALTSGVHTFPAVLQSSGLYSLSSVVTVPSSSLGTKTYTCNVDHKPSNTKVDKRVESKGSGGGGSGGGGSGGGGSSGTTNTVAAYNLTWKSTNFKTILEWEPKPVNQVYTVQISTKSGDWKSKCFYTTDTECDLTDEIVKDVKQTYLARVFSYPAGNVESTGSAGEPLYENSPEFTPYLETNLGQPTIQSFEQVGTKVNVTVEDERTLVRRNNTFLSLRDVFGKDLIYTLYYWKSSSSGKKTAKTNTNEFLIDVDKGENYCFSVQAVIPSRTVNRKSTDSPVECMGQEKGEFRE
light chain-HPC4: SIVMTQTPKFLLVSAGDRVTITCKASQSVSNDVAWYQQKPGQSPKLLINYASSRYTGIPDRFTGSGYGTDFTFTISTVQAEDLAVYFCQQDYSSPYTFGGGTKLEIERTVAAPSVFIFPPSDEQLKSGTASVVCLLNNFYPREAKVQWKVDNALQSGNSQESVTEQDSKDSTYSLSSTLTLSKADYEKHKVYACEVTHQGLSSPVTKSFNRGECEDQVDPRLIDGK
B3: Fab 0023-LC-L7-TF;VH-CH1-HPC4 (other)
light chain-linker-TF: DIVVSQSPSSLAVSAGEKVTMSCKSSQSLLNSRTRKNYLAWYQQKPGQSPKLLIYWASTRESGVPDRFTGSGSGTDFTLTISSVQAEDLAVYYCKQSYNLLTFGAGTKLELKRTVAAPSVFIFPPSDEQLKSGTASVVCLLNNFYPREAKVQWKVDNALQSGNSQESVTEQDSKDSTYSLSSTLTLSKADYEKHKVYACEVTHQGLSSPVTKSFNRGECGGGGSGGGGSGGGGSGSGGGGSGGGGSGGGGSSGTTNTVAAYNLTWKSTNFKTILEWEPKPVNQVYTVQISTKSGDWKSKCFYTTDTECDLTDEIVKDVKQTYLARVFSYPAGNVESTGSAGEPLYENSPEFTPYLETNLGQPTIQSFEQVGTKVNVTVEDERTLVRRNNTFLSLRDVFGKDLIYTLYYWKSSSSGKKTAKTNTNEFLIDVDKGENYCFSVQAVIPSRTVNRKSTDSPVECMGQEKGEFRE
VH-CH1-HPC4: EVRLVESGGGLVQPGGSLKLSCATSGFTFSDYFMYWIRQTPEKRLEWVAYISNGGDSSSYPDTVKGRFTISRDNAKNTLYLQMSRLKSEDTAMYYCATNKNWDDYYDMDYWGQGTSVTVSSASTKGPSVFPLAPCSRSTSESTAALGCLVKDYFPEPVTVSWNSGALTSGVHTFPAVLQSSGLYSLSSVVTVPSSSLGTKTYTCNVDHKPSNTKVDKRVESKEDQVDPRLIDGK
B4: Fab 0023-LC-L9-TF;VH-CH1-HPC4 (other)
light chain-linker-TF: DIVVSQSPSSLAVSAGEKVTMSCKSSQSLLNSRTRKNYLAWYQQKPGQSPKLLIYWASTRESGVPDRFTGSGSGTDFTLTISSVQAEDLAVYYCKQSYNLLTFGAGTKLELKRTVAAPSVFIFPPSDEQLKSGTASVVCLLNNFYPREAKVQWKVDNALQSGNSQESVTEQDSKDSTYSLSSTLTLSKADYEKHKVYACEVTHQGLSSPVTKSFNRGECGGGGSGGGGSGGGGSGGGGSGGGGSGSGGGGSGGGGSGGGGSSGTTNTVAAYNLTWKSTNFKTILEWEPKPVNQVYTVQISTKSGDWKSKCFYTTDTECDLTDEIVKDVKQTYLARVFSYPAGNVESTGSAGEPLYENSPEFTPYLETNLGQPTIQSFEQVGTKVNVTVEDERTLVRRNNTFLSLRDVFGKDLIYTLYYWKSSSSGKKTAKTNTNEFLIDVDKGENYCFSVQAVIPSRTVNRKSTDSPVECMGQEKGEFRE
VH-CH1-HPC4: B3 VH-CH1-HPC4
B5: Fab 0023-LC-L8-TF;VH-CH1-HPC4 (other)
light chain-linker-TF: DIVVSQSPSSLAVSAGEKVTMSCKSSQSLLNSRTRKNYLAWYQQKPGQSPKLLIYWASTRESGVPDRFTGSGSGTDFTLTISSVQAEDLAVYYCKQSYNLLTFGAGTKLELKRTVAAPSVFIFPPSDEQLKSGTASVVCLLNNFYPREAKVQWKVDNALQSGNSQESVTEQDSKDSTYSLSSTLTLSKADYEKHKVYACEVTHQGLSSPVTKSFNRGECGGGGSGGGGSGGGGSGGGGSGSGGGGSGGGGSGGGGSSGTTNTVAAYNLTWKSTNFKTILEWEPKPVNQVYTVQISTKSGDWKSKCFYTTDTECDLTDEIVKDVKQTYLARVFSYPAGNVESTGSAGEPLYENSPEFTPYLETNLGQPTIQSFEQVGTKVNVTVEDERTLVRRNNTFLSLRDVFGKDLIYTLYYWKSSSSGKKTAKTNTNEFLIDVDKGENYCFSVQAVIPSRTVNRKSTDSPVECMGQEKGEFRE
VH-CH1-HPC4: B3 VH-CH1-HPC4
B6: hTF.1-219 (soluble tissue factor) (receptor)
chain: SGTTNTVAAYNLTWKSTNFKTILEWEPKPVNQVYTVQISTKSGDWKSKCFYTTDTECDLTDEIVKDVKQTYLARVFSYPAGNVESTGSAGEPLYENSPEFTPYLETNLGQPTIQSFEQVGTKVNVTVEDERTLVRRNNTFLSLRDVFGKDLIYTLYYWKSSSSGKKTAKTNTNEFLIDVDKGENYCFSVQAVIPSRTVNRKSTDSPVECMGQEKGEFRE
B7: Fab 0023-VH-CH1-L4a-TF;LC-HPC4 (other)
VH-CH1-linker-TF: EVRLVESGGGLVQPGGSLKLSCATSGFTFSDYFMYWIRQTPEKRLEWVAYISNGGDSSSYPDTVKGRFTISRDNAKNTLYLQMSRLKSEDTAMYYCATNKNWDDYYDMDYWGQGTSVTVSSASTKGPSVFPLAPCSRSTSESTAALGCLVKDYFPEPVTVSWNSGALTSGVHTFPAVLQSSGLYSLSSVVTVPSSSLGTKTYTCNVDHKPSNTKVDKRVESKGSGGGGSGGGGSGGGGSSGTTNTVAAYNLTWKSTNFKTILEWEPKPVNQVYTVQISTKSGDWKSKCFYTTDTECDLTDEIVKDVKQTYLARVFSYPAGNVESTGSAGEPLYENSPEFTPYLETNLGQPTIQSFEQVGTKVNVTVEDERTLVRRNNTFLSLRDVFGKDLIYTLYYWKSSSSGKKTAKTNTNEFLIDVDKGENYCFSVQAVIPSRTVNRKSTDSPVECMGQEKGEFRE
light chain-HPC4: DIVVSQSPSSLAVSAGEKVTMSCKSSQSLLNSRTRKNYLAWYQQKPGQSPKLLIYWASTRESGVPDRFTGSGSGTDFTLTISSVQAEDLAVYYCKQSYNLLTFGAGTKLELKRTVAAPSVFIFPPSDEQLKSGTASVVCLLNNFYPREAKVQWKVDNALQSGNSQESVTEQDSKDSTYSLSSTLTLSKADYEKHKVYACEVTHQGLSSPVTKSFNRGECEDQVDPRLIDGK
B8: Fab 0052-VH-CH1-L4a-TF;LC-HPC4 (other)
VH-CH1-linker-TF: QVQLQQSGAEPMKPGASVKISCKATGYTFSSHWIEWIKQRPGHGLEWIGEILPGSGNTNYNEKFKGKATFTADTSSNTAYMQLSSLTSEDSAVYCCARGYYGLNYDWYFDVWGAGTTVTVSSASTKGPSVFPLAPCSRSTSESTAALGCLVKDYFPEPVTVSWNSGALTSGVHTFPAVLQSSGLYSLSSVVTVPSSSLGTKTYTCNVDHKPSNTKVDKRVESKGSGGGGSGGGGSGGGGSSGTTNTVAAYNLTWKSTNFKTILEWEPKPVNQVYTVQISTKSGDWKSKCFYTTDTECDLTDEIVKDVKQTYLARVFSYPAGNVESTGSAGEPLYENSPEFTPYLETNLGQPTIQSFEQVGTKVNVTVEDERTLVRRNNTFLSLRDVFGKDLIYTLYYWKSSSSGKKTAKTNTNEFLIDVDKGENYCFSVQAVIPSRTVNRKSTDSPVECMGQEKGEFRE
light chain-HPC4: DIQMTQTTSSLSASLGDRVTISCRASQDISNYLNWYQQKPDGTVKLLIFYTSRLHSGVPSRFSGSGSGTDYSLTISNLEPEDIATYYCQQDTKLPYTFGGGTKLEMKRTVAAPSVFIFPPSDEQLKSGTASVVCLLNNFYPREAKVQWKVDNALQSGNSQESVTEQDSKDSTYSLSSTLTLSKADYEKHKVYACEVTHQGLSSPVTKSFNRGECEDQVDPRLIDGK

Assays:
[1] = target: T1, TLT-1 18-188 relipidated in 20:80 PS:PC …; test: cell-based or functional assay
[2] = target: T2, TLT-1 receptor on the surface of …; test: cell-based or functional assay

Binder	FVII-mediated FXa generation % Activity lipidated TLT-1 [1]	FVIIa-mediated FXa generation % Activity lipidated TLT-1 [1]	FVIIa-mediated FXa generation % Activity activated plts (n 1) [2]	FVII-mediated FXa generation % Activity activated plts (n 1) [2]
B1	9%	29%	20%	–
B2	22%	48%	72%	43%
B3	25%	40%	35%	17%
B4	24%	38%	32%	14%
B5	24%	35%	33%	16%
B6	1%	13%	4%	2%
B7	26%	53%	45%	14%
B8	13%	29%	25%	10%
